Laboratory results: patent WO2022059800A1 (dated 2022)

Molecular target: T1, recombinant Tie2-Fc fusion protein (R&D systems) (UniProt Q02763 23-745)
T1 construct: not shown: Fc part
Assay: Biacore 8K, Ang2 amine-coupled, Tie2-Fc as analyte, single-cycle kinetics

T1 sequence (Q02763 23-745 limits assumed): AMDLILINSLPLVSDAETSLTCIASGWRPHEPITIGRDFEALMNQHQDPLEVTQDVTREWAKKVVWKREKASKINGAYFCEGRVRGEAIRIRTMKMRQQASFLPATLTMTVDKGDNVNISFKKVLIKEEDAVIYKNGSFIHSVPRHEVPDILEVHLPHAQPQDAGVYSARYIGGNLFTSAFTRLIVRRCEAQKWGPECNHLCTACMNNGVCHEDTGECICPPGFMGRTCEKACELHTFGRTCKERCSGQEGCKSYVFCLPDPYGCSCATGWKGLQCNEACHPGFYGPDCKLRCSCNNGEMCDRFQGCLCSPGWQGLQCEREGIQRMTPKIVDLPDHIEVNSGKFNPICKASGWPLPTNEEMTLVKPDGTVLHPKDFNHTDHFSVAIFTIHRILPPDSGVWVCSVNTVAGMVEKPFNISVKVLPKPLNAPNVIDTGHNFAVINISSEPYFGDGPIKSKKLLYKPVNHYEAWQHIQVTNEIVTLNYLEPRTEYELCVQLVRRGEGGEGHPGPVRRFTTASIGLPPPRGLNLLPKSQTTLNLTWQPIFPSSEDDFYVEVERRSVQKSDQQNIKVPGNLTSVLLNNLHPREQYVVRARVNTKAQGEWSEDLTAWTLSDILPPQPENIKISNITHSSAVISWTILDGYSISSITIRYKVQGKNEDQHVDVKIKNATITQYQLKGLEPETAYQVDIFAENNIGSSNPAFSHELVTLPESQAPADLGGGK

Kd: 4.26 nM
B1: human recombinant Ang2 protein (ligand, UniProt O15123 19-496, looked up)
chain: YNNFRKSMDSIGKKQYQVQHGSCSYTFLLPEMDNCRSSSSPYVSNAVQRDAPLEYDDSVQRLQVLENIMENNTQWLMKLENYIQDNMKKEMVEIQQNAVQNQTAVMIEIGTNLLNQTAEQTRKLTDVEAQVLNQTTRLELQLLEHSLSTNKLEKQILDQTSEINKLQDKNSFLEKKVLAMEDKHIIQLQSIKEEKDQLQVLVSKQNSIIEELEKKIVTATVNNSVLQKQQHDLMETVNNLLTMMSTSNSAKDPTVAKEEQISFRDCAEVFKSGHTTNGIYTLTFPNSTEEIKAYCDMEAGGGGWTIIQRREDGSVDFQRTWKEYKVGFGNPSGEYWLGNEFVSQLTNQQRYVLKIHLKDWEGNEAYSLYEHFYLSSEELNYRIHLKGLTGTAGKISSISQPGNDFSTKDGDNDKCICKCSQMLTGGWWFDACGPSNLNGMYYPQRQNTNKFNGIKWYYWKGSGYSLKATTMMIRPADF
notes: also called rhAng2; angiopoietin-2
